In patent US20160139131A1 (BIOALLIANCE C V, published 2016):
Values belong to the molecule of their own block, whether it stands above or below them. No end group written: not given here.

How the values were obtained:
[1] = molecular target: CD43 expressed on the surface of COLO 205 colorectal cancer cells (human) (UniProt P16150); assay: flow cytometry on COLO 205 cells
[2] = molecular target: CD43 on human peripheral T cells (human) (UniProt P16150); assay: flow cytometry on peripheral T cells
CD43 on human peripheral T cells (human), sequence (P16150 20-400): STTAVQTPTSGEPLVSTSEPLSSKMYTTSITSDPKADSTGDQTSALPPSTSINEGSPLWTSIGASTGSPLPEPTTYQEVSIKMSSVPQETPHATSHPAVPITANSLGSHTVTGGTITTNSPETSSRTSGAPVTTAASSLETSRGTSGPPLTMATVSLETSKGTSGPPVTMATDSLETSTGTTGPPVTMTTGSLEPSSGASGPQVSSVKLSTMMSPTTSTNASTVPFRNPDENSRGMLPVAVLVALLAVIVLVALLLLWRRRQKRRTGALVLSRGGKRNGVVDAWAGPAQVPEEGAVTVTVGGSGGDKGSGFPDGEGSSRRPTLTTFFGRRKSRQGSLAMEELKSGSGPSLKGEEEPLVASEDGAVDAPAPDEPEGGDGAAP

[3] = molecular target: CD43 expressed on the surface of COLO 205 colorectal cancer cells (human) (UniProt P16150); assay: flow cytometry on COLO 205 cells; signal of biotinylated 5F1 (1 microgram/ml, competitor) with unlabeled antibody at 0.03 microgram/ml
5F1-01-2-21 = molecular target: T1, 5F1-01-2-21 (also: fused to unnamed carrier protein, order not given here); assay: sandwich ELISA, 5F1 coated, peptide-carrier fusion
T1 construct: Tested as a fusion to an unnamed carrier protein; not shown: the unnamed carrier protein to which the 12-mer was fused (and any linker to it)
T1 peptide: WPIDLMSETPIL
Method: (§1) To further confirm the tripeptide epitope that antibody 5F1 binds, Sandwich ELISA was performed. 96-well microtiter plates were coated with antibody (5F1 or control antibody 9E10) with 50 μl per well at the concentration of 1 μg/ml over night at 4° C. Plates were blocked by incubation with 0.25% of BSA in PBS (150 μl/well) for 1 hour at 37° C. Plates were then incubated with fusion proteins containing various fragments of polypeptides fused to a carrier protein for 2 hours at room temperature. After washing 4 times with PBS containing 0.05% of Tween 20, plates were then incubated with carrier protein-specific antibody at 2 μg/ml for 1.5 hours at room temperature. After incubation, plates were washed 4 times with PBST. 50 μl of 1 to 3000 diluted Goat anti-carrier protein-specific antibody conjugated with HRP was then added to each well and the plates were incubated for 1 hour at 37° C. Enzyme reaction was carried out by adding substrate of the HRP enzyme to determine the reactivity of the designated polypeptide to these to these two antibodies (5F1 and 9E10). […] Monoclonal antibody 5F1 recognized a tripeptide WPI epitope structure.

5F1-01-2-13 = molecular target: T2, 5F1-01-2-13 (also: fused to unnamed carrier protein); assay: sandwich ELISA, 5F1 coated, peptide-carrier fusion
T2 construct: Tested as a fusion to an unnamed carrier protein; not shown: the unnamed carrier protein to which the 12-mer was fused (and any linker to it)
T2 peptide: WPISPQPGARPV
Method: as §1

5F1-01-2-14 = molecular target: T3, 5F1-01-2-14; assay: sandwich ELISA, 5F1 coated, peptide-carrier fusion
T3 construct: Tested as a fusion to an unnamed carrier protein
T3 peptide: WPIHSAHVRYTT
Method: as §1

5F1-01-2-18 = molecular target: T4, 5F1-01-2-18 (also: fused to unnamed carrier protein); assay: sandwich ELISA, 5F1 coated, peptide-carrier fusion
T4 construct: Tested as a fusion to an unnamed carrier protein; not shown: the unnamed carrier protein to which the 12-mer was fused (and any linker to it)
T4 peptide: WPISGKHSFWSL
Method: as §1

5F1-01-2-06 = molecular target: T5, 5F1-01-2-06 (also: fused to unnamed carrier protein); assay: sandwich ELISA, 5F1 coated, peptide-carrier fusion
T5 construct: Tested as a fusion to an unnamed carrier protein; not shown: the unnamed carrier protein to which the 12-mer was fused (and any linker to it)
T5 peptide: WPIPPEVEPFKH
Method: as §1

5F1-01-2-17 = molecular target: T6, 5F1-01-2-17 (also: fused to unnamed carrier protein); assay: sandwich ELISA, 5F1 coated, peptide-carrier fusion
T6 construct: Tested as a fusion to an unnamed carrier protein; not shown: the unnamed carrier protein to which the 12-mer was fused (and any linker to it)
T6 peptide: WPILDHAVSRPS
Method: as §1

5F1-01-2-16 = molecular target: T7, 5F1-01-2-16 (also: fused to unnamed carrier protein); assay: sandwich ELISA, 5F1 coated, peptide-carrier fusion
T7 construct: Tested as a fusion to an unnamed carrier protein; not shown: the unnamed carrier protein to which the 12-mer was fused (and any linker to it)
T7 peptide: WPIDIPYAWDFS
Method: as §1

5F1-01-2-09 = molecular target: T8, 5F1-01-2-09 (also: fused to unnamed carrier protein); assay: sandwich ELISA, 5F1 coated, peptide-carrier fusion
T8 construct: Tested as a fusion to an unnamed carrier protein; not shown: the unnamed carrier protein to which the 12-mer was fused (and any linker to it)
T8 peptide: WPIAPNRYLLSS
Method: as §1

5F1-01-2-22 = molecular target: T9, 5F1-01-2-22; assay: sandwich ELISA, 5F1 coated, peptide-carrier fusion
T9 construct: Tested as a fusion to an unnamed carrier protein
T9 peptide: WPITNSDSRITW
Method: as §1

[4] = molecular target: CD43 expressed on the surface of COLO 205 colorectal cancer cells (human) (UniProt P16150); assay: flow cytometry on COLO 205 cells; signal of biotinylated 5F1 (1 microgram/ml, competitor) with unlabeled antibody at 7.4 microgram/ml
[5] = molecular target: CD43 expressed on the surface of COLO 205 colorectal cancer cells (human) (UniProt P16150); assay: flow cytometry on COLO 205 cells; signal of biotinylated 5F1 (1 microgram/ml, competitor) with unlabeled antibody at 0.273 microgram/ml
[6] = molecular target: CD43 expressed on the surface of COLO 205 colorectal cancer cells (human) (UniProt P16150); assay: flow cytometry on COLO 205 cells; signal of biotinylated 5F1 (1 microgram/ml, competitor) with unlabeled antibody at 0.82 microgram/ml
[7] = molecular target: CD43 expressed on the surface of COLO 205 colorectal cancer cells (human) (UniProt P16150); assay: flow cytometry on COLO 205 cells; signal of biotinylated 5F1 (1 microgram/ml, competitor) with unlabeled antibody at 66.7 microgram/ml
[8] = molecular target: CD43 expressed on the surface of COLO 205 colorectal cancer cells (human) (UniProt P16150); assay: flow cytometry on COLO 205 cells; signal of biotinylated 5F1 (1 microgram/ml, competitor) with unlabeled antibody at 2.46 microgram/ml
[9] = molecular target: CD43 expressed on the surface of NCI-N87 gastric cancer cells (human) (UniProt P16150); assay: flow cytometry on NCI-N87 cells
CD43 expressed on the surface of NCI-N87 gastric cancer cells (human), sequence (P16150 20-400): as above

[10] = molecular target: CD43 expressed on the surface of COLO 205 colorectal cancer cells (human) (UniProt P16150); assay: flow cytometry on COLO 205 cells; signal of biotinylated 5F1 (1 microgram/ml, competitor) with unlabeled antibody at 0.09 microgram/ml
[11] = molecular target: CD43 expressed on the surface of COLO 205 colorectal cancer cells (human) (UniProt P16150); assay: flow cytometry on COLO 205 cells; signal of biotinylated 5F1 (1 microgram/ml, competitor) with unlabeled antibody at 200 microgram/ml
[12] = molecular target: CD43 expressed on the surface of COLO 205 colorectal cancer cells (human) (UniProt P16150); assay: flow cytometry on COLO 205 cells; signal of biotinylated 5F1 (1 microgram/ml, competitor) with unlabeled antibody at 22.2 microgram/ml
9F9-01-03-21 = molecular target: T10, 9F9-01-03-21; assay: sandwich ELISA, 5F1 coated, peptide-carrier fusion
T10 construct: Tested as a fusion to an unnamed carrier protein
T10 peptide: YDHHWTNPPTQK

9F9-01-03-17 = molecular target: T11, 9F9-01-03-17; assay: sandwich ELISA, 5F1 coated, peptide-carrier fusion
T11 construct: Tested as a fusion to an unnamed carrier protein
T11 peptide: AGQKWDPEWPHS

5F1-01-2-04 = molecular target: T12, 5F1-01-2-04 (also: fused to unnamed carrier protein); assay: sandwich ELISA, 5F1 coated, peptide-carrier fusion
T12 construct: Tested as a fusion to an unnamed carrier protein; not shown: the unnamed carrier protein to which the 12-mer was fused (and any linker to it)
T12 peptide: WPIANHENALSA

9F9-01-03-24 = molecular target: T13, 9F9-01-03-24; assay: sandwich ELISA, 5F1 coated, peptide-carrier fusion
T13 construct: Tested as a fusion to an unnamed carrier protein
T13 peptide: AETDYDPDHFTP

9F9-01-03-25 = molecular target: T14, 9F9-01-03-25; assay: sandwich ELISA, 5F1 coated, peptide-carrier fusion
T14 construct: Tested as a fusion to an unnamed carrier protein
T14 peptide: EPNMDPNWASPS

5F1-01-2-23 = molecular target: T15, 5F1-01-2-23; assay: sandwich ELISA, 5F1 coated, peptide-carrier fusion
T15 construct: Tested as a fusion to an unnamed carrier protein
T15 peptide: WPIPTLMELPSA

9F9-01-03-18 = molecular target: T16, 9F9-01-03-18; assay: sandwich ELISA, 5F1 coated, peptide-carrier fusion
T16 construct: Tested as a fusion to an unnamed carrier protein
T16 peptide: DARYSHDPAWPY

[13] = molecular target: CD43 on Jurkat cells (lymphoblastoid leukemia cell line; ATCC TIB-152) (human) (UniProt P16150); assay: flow cytometry on Jurkat cells
CD43 on Jurkat cells (lymphoblastoid leukemia cell line; ATCC TIB-152) (human), sequence (P16150 20-400): as above

[14] = molecular target: CD43 expressed on the surface of COLO 205 colorectal cancer cells (human) (UniProt P16150); assay: cell-based or functional assay

CD43 expressed on the surface of COLO 205 colorectal cancer cells (human), sequence (P16150 20-400): as above

- % of Binding [1]: > 70%
- % of Binding [2]: > 80%
Molecule: MEM-59 (anti-CD43; Biovendor, Candler, NC) (antibody)

- Mean Fluorescence Intensity [3]: 888
- binding result (5F1-01-2-21): binds
- binding result (5F1-01-2-13): binds
- binding result (5F1-01-2-14): binds
- binding result (5F1-01-2-18): binds
- binding result (5F1-01-2-06): binds
- binding result (5F1-01-2-17): binds
- binding result (5F1-01-2-16): binds
- binding result (5F1-01-2-09): binds
- binding result (5F1-01-2-22): binds
- Mean Fluorescence Intensity [4]: 129
- % of Binding [1]: > 80%
- Mean Fluorescence Intensity [5]: 1030
- Mean Fluorescence Intensity [6]: 1000
- Mean Fluorescence Intensity [7]: 60.3
- Mean Fluorescence Intensity [8]: 733
- % of Binding [9]: > 80%
- Mean Fluorescence Intensity [10]: 825
- Mean Fluorescence Intensity [11]: 9.78
- Mean Fluorescence Intensity [12]: 21.7
- binding result (9F9-01-03-21): no binding
- binding result (9F9-01-03-17): no binding
- binding result (5F1-01-2-04): binds
- binding result (9F9-01-03-24): no binding
- binding result (9F9-01-03-25): no binding
- binding result (5F1-01-2-23): binds
- binding result (9F9-01-03-18): no binding
- % of Binding [2]: < 10%
- % of Binding [13]: < 10%
- % Apoptosis (annexin-V+) [14]: > 40%
B1: monoclonal antibody 5F1 (antibody, V domains shown)
VH: EVQLQQSGPELVKPGASVRMSCTASGYTFTSYVMHWIKQKPGQGLDWIGYINPYNGGTQYNEKFKGKATLTSDKSSSTAYMELSSLTSEDSAVYYCARRTFPYYFDYWGQGTTLTVSS
VL: DVLMTQTPLSLPVSLGDQASISCRSSQSILHSNGNTYLEWYLQKPGQSPKLLIYKVSNRFSGVPDRFSGSGSGTDFTLKISRVEAEDLGVYYCFQGSHAPLTFGAGTKLELK
notes: also called m5F1; m133-5F1
